Measurements reported in patent US20170283457A1 (YEDA RESEARCH AND DEVELOPMENT, published 2017).
One block for each binder: values may come before it.

B1: Importin7 (receptor, UniProt O95373 1-1038, looked up)
chain: MDPNTIIEALRGTMDPALREAAERQLNEAHKSLNFVSTLLQITMSEQLDLPVRQAGVIYLKNMITQYWPDRETAPGDISPYTIPEEDRHCIRENIVEAIIHSPELIRVQLTTCIHHIIKHDYPSRWTAIVDKIGFYLQSDNSACWLGILLCLYQLVKNYEYKKPEERSPLVAAMQHFLPVLKDRFIQLLSDQSDQSVLIQKQIFKIFYALVQYTLPLELINQQNLTEWIEILKTVVNRDVPNETLQVEEDDRPELPWWKCKKWALHILARLFERYGSPGNVSKEYNEFAEVFLKAFAVGVQQVLLKVLYQYKEKQYMAPRVLQQTLNYINQGVSHALTWKNLKPHIQGIIQDVIFPLMCYTDADEELWQEDPYEYIRMKFDVFEDFISPTTAAQTLLFTACSKRKEVLQKTMGFCYQILTEPNADPRKKDGALHMIGSLAEILLKKKIYKDQMEYMLQNHVFPLFSSELGYMRARACWVLHYFCEVKFKSDQNLQTALELTRRCLIDDREMPVKVEAAIALQVLISNQEKAKEYITPFIRPVMQALLHIIRETENDDLTNVIQKMICEYSEEVTPIAVEMTQHLAMTFNQVIQTGPDEEGSDDKAVTAMGILNTIDTLLSVVEDHKEITQQLEGICLQVIGTVLQQHVLEFYEEIFSLAHSLTCQQVSPQMWQLLPLVFEVFQQDGFDYFTDMMPLLHNYVTVDTDTLLSDTKYLEMIYSMCKKVLTGVAGEDAECHAAKLLEVIILQCKGRGIDQCIPLFVEAALERLTREVKTSELRTMCLQVAIAALYYNPHLLLNTLENLRFPNNVEPVTNHFITQWLNDVDCFLGLHDRKMCVLGLCALIDMEQIPQVLNQVSGQILPAFILLFNGLKRAYACHAEHENDSDDDDEAEDDDETEELGSDEDDIDEDGQEYLEILAKQAGEDGDDEDWEEDDAEETALEGYSTIIDDEDNPVDEYQIFKAIFQTIQNRNPVWYQALTHGLNEEQRKQLQDIATLADQRRAAHESKMIEKHGGYKFSAPVVPSSFNFGGPAPGMN
notes: Endogenous protein; also called Imp7; RANBP7

Columns and labels:
Importin9 [1] = target: T1, Importin9 (UniProt Q96P70 2-1041); assay: PLA, resting HeLa cells
T1 construct: Endogenous protein; also called Imp9; IMB5
T1 sequence (Q96P70 2-1041 limits assumed): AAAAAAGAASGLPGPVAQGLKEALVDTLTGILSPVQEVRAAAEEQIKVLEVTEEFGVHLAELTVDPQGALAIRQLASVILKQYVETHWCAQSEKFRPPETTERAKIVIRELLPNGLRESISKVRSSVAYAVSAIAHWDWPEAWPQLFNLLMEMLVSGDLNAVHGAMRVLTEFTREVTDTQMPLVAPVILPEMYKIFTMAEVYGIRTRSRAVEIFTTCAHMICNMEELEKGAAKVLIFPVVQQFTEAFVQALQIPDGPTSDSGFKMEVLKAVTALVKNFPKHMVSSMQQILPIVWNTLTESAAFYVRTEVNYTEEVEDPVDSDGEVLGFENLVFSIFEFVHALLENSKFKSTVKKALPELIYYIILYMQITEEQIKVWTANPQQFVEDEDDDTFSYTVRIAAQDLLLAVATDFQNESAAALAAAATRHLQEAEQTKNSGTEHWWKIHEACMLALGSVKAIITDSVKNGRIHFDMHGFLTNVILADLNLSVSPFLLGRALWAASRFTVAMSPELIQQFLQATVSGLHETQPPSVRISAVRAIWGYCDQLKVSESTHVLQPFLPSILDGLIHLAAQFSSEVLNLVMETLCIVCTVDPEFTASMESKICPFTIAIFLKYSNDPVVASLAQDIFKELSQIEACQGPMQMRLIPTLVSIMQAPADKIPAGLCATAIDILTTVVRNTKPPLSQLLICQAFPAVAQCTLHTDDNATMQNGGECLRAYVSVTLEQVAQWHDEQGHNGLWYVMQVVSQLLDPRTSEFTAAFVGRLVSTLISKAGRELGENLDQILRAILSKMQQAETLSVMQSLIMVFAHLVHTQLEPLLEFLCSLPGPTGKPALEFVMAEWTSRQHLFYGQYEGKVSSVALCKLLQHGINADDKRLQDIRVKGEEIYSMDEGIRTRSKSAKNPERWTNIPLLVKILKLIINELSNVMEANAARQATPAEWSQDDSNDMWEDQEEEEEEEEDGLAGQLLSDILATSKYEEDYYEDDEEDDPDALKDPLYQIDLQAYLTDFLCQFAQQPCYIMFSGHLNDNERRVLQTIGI
Method: FIGS. 5A-5D illustrate that Imp3 interacts with Imp7/9-MAPK dimer in a phospho-dependent manner (A) Detecting heterodimerization of Imp3/7/9 using PLA. HeLa cells were grown on slides to 70% confluence, serum starved, and stimulated with Anisomycin (Anis, 0.5 μg/ml 15 min). Thereafter, the cells were fixed and subjected to a PLA, using the Abs indicated on top. The nuclei were detected using DAPI, and slides were visualized using a fluorescent microscope. (B) Quantification of the intensity of the signal was performed using ImageJ analysis tool. Data shown represents mean±S.E. The significance of stimulated vs NT was p<0.0005. (C) Detecting Imp3/7/9 interaction by CoIP. Serum-starved HeLa cells (0.1% FBS, 16 hrs) were treated with Anisomycin (Anis 0.5 μg/ml) or TPA (250 nM) for 15 min. Cell extracts were then subjected to a Co-IP with the Abs indicated on right. […] The beads were then washed with a washing buffer containing 150 mM NaCl, and interacting Imps were detected using Western blot analysis with the indicated Abs.
In order to examine this hypothesis, and establish a complex formation between endogenous Imp3/7/9, the present inventors monitored these possible interactions by PLA. No interaction between any of the examined Importins was detected in resting HeLa cells (FIGS. 5A, 5B). […]

Importin7 [2] = target: B1; assay: in vitro interaction: GST-MAPK with Imp IPed from stimulated HeLa cells, Western blot
Method: (§1) FIGS. 3A-3B illustrate that JNK1/2 and p38α/β directly interact with either Imp7 or Imp9 but not with Imp3. (A) In vitro interaction of JNK1/2 and p38α/β with Imp3/7/9. Purified Imp3/7/9 were prepared by IP as follows: HeLa cells were grown to 70% confluence, serum starved, and then were either stimulated with Anisomycin (Anis 0.5 μg/ml, 15 min), TPA (250 nM, 15 min) or left untreated (NT). Imp3/7/9 were then IPed from the cell's extracts and extensively washed, twice with RIPA buffer and once with 0.5M LiCl. The indicated GST-MAPKs were prepared from bacteria as described under Materials and methods. To examine association, 500 ng of each GST-MAPK were incubated with 20 μl of the indicated IPed Imps in PBS (2 hrs, 4° C., with rotation). The beads were then washed with washing buffer containing 150 mM NaCl, and interacting MAPKs were detected using Western blot analysis with the indicated Abs. (B) Imp3 is not required for Imp7/9 interactions with JNK1/2 and p38α/β. HeLa cells were treated with Si RNAs of Imp3 according to the manufacturer instructions. […] Cell extracts were then subjected to Co-IP with anti Imp7 or Imp9, the interacting MAPKs were detected by Western blot with the indicated Abs. Amount of IPed Imps was detected by the indicated Abs.

Importin9 [3] = target: T1, Importin9; assay: as above
Method: as §1

Importin7 [4] = target: B1; assay: Co-IP with anti GFP Abs, transfected HeLa cells
Method: (§2) FIGS. 10A-10B illustrate that endogenous and overexpressed JNK1/2 and p38α/β CoIP with Imp3, 7 and 9. (A) A Co-IP screen to detect the importins interacting with JNK1/2 and p38α/β in MCF7 cells. MCF7 cells were grown on slides to 70% confluence, serums starved and then were either stimulated with Anisomycin (Anis 0.5 μg/ml, 15 min), TPA (250 nM, 15 min) or left untreated (NT). Cells extracts were then subjected to Co-IP with anti JNK1, JNK2, p38α, or p38β, and rabbit IgG as a negative control (Control). The interacting Imps or the IPed MAPKs were detected by Western blot with the indicated Imps or MAPK Abs. (B) Interaction of overexpressed MAPKs in HeLa cells. HeLa cells were transfected with either JNK2-GFP (wt-JNK2), p38ββ-GFP (wt-p38β) or GFP alone. Cells were serum starved, and then treated with Anisomycin (Anis 0.5 μg/ml, 15 min), TPA (250 nM, 15 min). Cells extracts were then subjected to a CoIP with anti GFP Abs. The interacting Imps and the loading extracts were detected using Western blot analysis with the indicated (left) Abs. The blots were developed with either NBT/BCIP or ECL. Arrows indicate interacting Imps.

Importin9 [5] = target: T1, Importin9; assay: Co-IP with anti GFP Abs, transfected HeLa cells
Method: as §2

Binder: B1
binding result (Importin9 [1]): no binding

binding result (Importin7 [2]): binds
binding result (Importin9 [3]): binds
B2: GST-p38β (enzyme, UniProt Q15759 1-364, looked up)
chain: MSGPRAGFYRQELNKTVWEVPQRLQGLRPVGSGAYGSVCSAYDARLRQKVAVKKLSRPFQSLIHARRTYRELRLLKHLKHENVIGLLDVFTPATSIEDFSEVYLVTTLMGADLNNIVKCQALSDEHVQFLVYQLLRGLKYIHSAGIIHRDLKPSNVAVNEDCELRILDFGLARQADEEMTGYVATRWYRAPEIMLNWMHYNQTVDIWSVGCIMAELLQGKALFPGSDYIDQLKRIMEVVGTPSPEVLAKISSEHARTYIQSLPPMPQKDLSSIFRGANPLAIDLLGRMLVLDSDQRVSAAEALAHAYFSQYHDPEDEPEAEPYDESVEAKERTLEEWKELTYQEVLSFKPPEPPKPPGSLEIEQ
notes: Made in bacteria; also called GST-p38α/β; GST-MAPK; not shown: glutathione S-transferase tag of the pGEX-2T vector (GE healthcare)

binding result (Importin7 [4]): binds
binding result (Importin9 [5]): binds
B3: p38β-GFP (enzyme, UniProt Q15759 1-364, looked up)
chain: MSGPRAGFYRQELNKTVWEVPQRLQGLRPVGSGAYGSVCSAYDARLRQKVAVKKLSRPFQSLIHARRTYRELRLLKHLKHENVIGLLDVFTPATSIEDFSEVYLVTTLMGADLNNIVKCQALSDEHVQFLVYQLLRGLKYIHSAGIIHRDLKPSNVAVNEDCELRILDFGLARQADEEMTGYVATRWYRAPEIMLNWMHYNQTVDIWSVGCIMAELLQGKALFPGSDYIDQLKRIMEVVGTPSPEVLAKISSEHARTYIQSLPPMPQKDLSSIFRGANPLAIDLLGRMLVLDSDQRVSAAEALAHAYFSQYHDPEDEPEAEPYDESVEAKERTLEEWKELTYQEVLSFKPPEPPKPPGSLEIEQ
notes: Overexpressed in HeLa cells; also called wt-p38β; GFP-p38β; not shown: GFP of the pEGFP-C1 vector (Clontech)
